The text below walks through data of US20150166663A1.

For assay [1], the target named is cynomolgus αVβ6 on cells (cynomolgus). As to the kind of experiment: FACS, K562 cells expressing cynomolgus αVβ6 (parental 46). On the technique in general: A flow cytometer gives signals particle by particle.
For assay [2], the target named is cynomolgus β6 on transfected HEK-293 cells (cynomolgus). As to the kind of experiment: FACS, transiently transfected HEK-293 cells.
Assay [3] addresses cynomolgus αVβ6 on cells (cynomolgus). In words: FACS, transiently transfected HEK-293 cells.
Assay [4] addresses α4β1 integrin on J6.77 cells (UniProt P13612). As to the kind of experiment: cell-based or functional assay.
Assay [5] deals with mouse αVβ6 on cells (mouse) (UniProt P43406). In words: FACS, K562 cells expressing mouse αVβ6 (parental 46).
Chain of mouse αVβ6 on cells (mouse) (P43406 31-1044, chain 1 of 2): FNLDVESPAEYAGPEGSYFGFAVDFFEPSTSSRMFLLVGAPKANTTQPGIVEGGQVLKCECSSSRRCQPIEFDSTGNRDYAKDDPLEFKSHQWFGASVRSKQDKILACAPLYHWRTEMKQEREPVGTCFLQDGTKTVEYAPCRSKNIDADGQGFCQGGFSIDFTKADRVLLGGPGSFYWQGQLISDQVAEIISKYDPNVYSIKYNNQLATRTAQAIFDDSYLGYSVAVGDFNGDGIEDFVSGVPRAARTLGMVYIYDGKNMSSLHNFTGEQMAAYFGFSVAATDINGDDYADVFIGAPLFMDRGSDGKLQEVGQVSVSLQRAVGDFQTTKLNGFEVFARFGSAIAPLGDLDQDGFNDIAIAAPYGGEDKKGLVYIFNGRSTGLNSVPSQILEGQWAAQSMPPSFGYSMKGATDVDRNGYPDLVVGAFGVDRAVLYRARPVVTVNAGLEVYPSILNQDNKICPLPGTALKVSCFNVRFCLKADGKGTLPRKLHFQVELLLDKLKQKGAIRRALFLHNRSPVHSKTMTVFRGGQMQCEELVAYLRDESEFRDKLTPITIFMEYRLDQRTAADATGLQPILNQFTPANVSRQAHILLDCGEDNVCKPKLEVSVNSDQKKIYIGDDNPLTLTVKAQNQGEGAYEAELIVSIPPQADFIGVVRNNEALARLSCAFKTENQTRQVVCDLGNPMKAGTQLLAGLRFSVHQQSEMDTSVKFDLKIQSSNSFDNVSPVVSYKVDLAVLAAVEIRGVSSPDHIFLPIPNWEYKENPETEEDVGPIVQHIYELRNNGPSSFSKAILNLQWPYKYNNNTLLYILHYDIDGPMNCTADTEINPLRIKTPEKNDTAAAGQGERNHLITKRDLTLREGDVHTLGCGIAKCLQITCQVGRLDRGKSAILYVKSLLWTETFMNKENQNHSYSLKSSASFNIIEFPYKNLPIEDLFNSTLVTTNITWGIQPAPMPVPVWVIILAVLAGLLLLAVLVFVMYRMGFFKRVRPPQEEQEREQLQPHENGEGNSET
Chain of mouse αVβ6 on cells (mouse) (Q9Z0T9 22-787, chain 2 of 2, further chain): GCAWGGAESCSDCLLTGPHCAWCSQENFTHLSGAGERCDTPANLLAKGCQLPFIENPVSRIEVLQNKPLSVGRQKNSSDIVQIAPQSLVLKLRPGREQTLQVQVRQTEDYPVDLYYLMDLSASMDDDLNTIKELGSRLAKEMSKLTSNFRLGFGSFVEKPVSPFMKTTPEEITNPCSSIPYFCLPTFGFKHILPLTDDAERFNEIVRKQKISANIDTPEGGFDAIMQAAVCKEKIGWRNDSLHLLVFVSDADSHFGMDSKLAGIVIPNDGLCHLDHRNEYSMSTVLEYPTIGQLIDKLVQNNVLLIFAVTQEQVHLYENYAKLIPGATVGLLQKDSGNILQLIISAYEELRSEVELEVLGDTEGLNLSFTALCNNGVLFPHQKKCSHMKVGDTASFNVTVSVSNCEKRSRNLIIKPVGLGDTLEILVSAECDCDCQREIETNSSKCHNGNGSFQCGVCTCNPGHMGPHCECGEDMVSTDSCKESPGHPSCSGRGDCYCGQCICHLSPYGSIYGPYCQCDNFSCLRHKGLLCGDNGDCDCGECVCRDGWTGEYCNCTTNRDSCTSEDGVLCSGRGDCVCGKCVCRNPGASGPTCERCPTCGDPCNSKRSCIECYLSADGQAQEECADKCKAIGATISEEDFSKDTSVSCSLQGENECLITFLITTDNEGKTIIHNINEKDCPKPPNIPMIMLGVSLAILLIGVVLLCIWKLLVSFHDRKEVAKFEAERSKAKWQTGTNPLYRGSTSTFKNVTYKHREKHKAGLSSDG
Assay [6] concerns the target cynomolgus αVβ6 on cells (cynomolgus). In words: FACS, HEK-293 cells transfected with cynomolgus αV and β6, day 2.
Assay [7] shares this target. As to the kind of experiment: FACS, HEK-293 cells transfected with cynomolgus αV and β6, day 1.
The target of assay [8] is human αV on parental A375M cells (αVβ3 and αVβ5) (human) (UniProt P06756). As to the kind of experiment: FACS, parental A375M cells, day 1.
Assay [9] has as its target α5β1 integrin on K562 cells (UniProt P08648). As to the kind of experiment: cell-based or functional assay.
Assay [10] has as its target human αV on parental A375M cells (αVβ3 and αVβ5) (human) (UniProt P06756). In words: cell-based or functional assay.
For assay [11] the target is unchanged. In words: FACS, parental A375M cells, day 2.
Assay [12] deals with cynomolgus αVβ6 on cells (cynomolgus). As to the kind of experiment: FACS, K562 cells expressing cynomolgus αVβ6 (parental 12).
Assay [13] addresses mouse αVβ6 on cells (mouse) (UniProt P43406). In words: FACS, K562 cells expressing mouse αVβ6 (parental 12).
Assay [14] addresses cynomolgus αVβ6 on cells (cynomolgus). As to the kind of experiment: FACS, K562 cells expressing cynomolgus αVβ6 (parental 23).
Assay [15] has as its target mouse αVβ6 on cells (mouse) (UniProt P43406). In words: FACS, K562 cells expressing mouse αVβ6 (parental 23).
The target of assay [16] is cynomolgus αVβ6 on cells (cynomolgus). As to the kind of experiment: FACS, 1 ug/ml, HEK-293 cells transfected with cynomolgus αV and β6, day 1.
Assay [17] addresses soluble αVβ6 (human) (UniProt P06756). In words: ELISA, 1 ug/mL on coated soluble αVβ6. A general note: In an ELISA, binding on a coated surface is turned into a signal by an enzyme label.
Assay [18] has as its target human αVβ6 integrin on cells (human) (UniProt P06756). As to the kind of experiment: FMAT, 1 ug/mL on HEK 293 cells stably overexpressing αVβ6.
Assay [19] concerns the target human αV on parental A375M cells (αVβ3 and αVβ5) (human) (UniProt P06756). As to the kind of experiment: FACS, 1 ug/ml, parental A375M cells, day 2.
In assay [20] the target is cynomolgus αVβ6 on cells (cynomolgus). As to the kind of experiment: FACS, K562 cells expressing cynomolgus αVβ6 (parental 15).
Assay [21] addresses human αVβ6 integrin on cells (human) (UniProt P06756). As to the kind of experiment: cell-based or functional assay.
For assay [22], the target named is human αV on parental A375M cells (αVβ3 and αVβ5) (human) (UniProt P06756). As to the kind of experiment: FACS, 1 ug/ml, parental A375M cells, day 1.
The target in assay [23] is cynomolgus αVβ6 on cells (cynomolgus). In words: FACS, 1 ug/ml, HEK-293 cells transfected with cynomolgus αV and β6, day 2.
The target in assay [24] is mouse αVβ6 on cells (mouse) (UniProt P43406). As to the kind of experiment: FACS, K562 cells expressing mouse αVβ6 (parental 15).

Chain of human αVβ6 integrin on cells (human) (P06756 31-1048, chain 1 of 2): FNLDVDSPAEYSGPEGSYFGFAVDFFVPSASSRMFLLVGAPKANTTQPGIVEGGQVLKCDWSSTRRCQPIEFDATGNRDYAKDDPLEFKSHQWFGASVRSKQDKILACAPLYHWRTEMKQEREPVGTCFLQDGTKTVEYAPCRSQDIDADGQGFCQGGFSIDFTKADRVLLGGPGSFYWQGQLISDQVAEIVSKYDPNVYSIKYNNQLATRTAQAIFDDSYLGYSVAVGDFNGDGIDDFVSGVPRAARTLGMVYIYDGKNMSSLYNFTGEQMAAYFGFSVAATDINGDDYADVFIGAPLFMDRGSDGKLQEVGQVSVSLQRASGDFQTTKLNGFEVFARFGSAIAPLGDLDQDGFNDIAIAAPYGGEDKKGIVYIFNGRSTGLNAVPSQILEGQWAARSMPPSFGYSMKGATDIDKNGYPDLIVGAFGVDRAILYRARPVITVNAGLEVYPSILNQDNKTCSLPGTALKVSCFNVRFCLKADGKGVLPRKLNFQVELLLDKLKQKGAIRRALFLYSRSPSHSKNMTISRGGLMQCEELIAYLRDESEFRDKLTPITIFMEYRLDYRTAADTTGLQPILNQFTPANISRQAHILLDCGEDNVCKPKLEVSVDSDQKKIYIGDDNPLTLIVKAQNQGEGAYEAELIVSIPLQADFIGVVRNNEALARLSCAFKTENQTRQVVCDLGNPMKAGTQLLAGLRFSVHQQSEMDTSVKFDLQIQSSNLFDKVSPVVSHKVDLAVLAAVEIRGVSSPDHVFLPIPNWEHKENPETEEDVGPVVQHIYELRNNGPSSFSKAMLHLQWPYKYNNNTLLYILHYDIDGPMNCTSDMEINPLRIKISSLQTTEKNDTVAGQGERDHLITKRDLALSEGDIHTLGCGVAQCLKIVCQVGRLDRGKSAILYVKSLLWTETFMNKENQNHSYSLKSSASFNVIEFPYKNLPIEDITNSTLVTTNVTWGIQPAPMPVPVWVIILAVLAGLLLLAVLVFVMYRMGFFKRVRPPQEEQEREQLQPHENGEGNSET
Chain of human αVβ6 integrin on cells (human) (P18564 22-788, chain 2 of 2, further chain): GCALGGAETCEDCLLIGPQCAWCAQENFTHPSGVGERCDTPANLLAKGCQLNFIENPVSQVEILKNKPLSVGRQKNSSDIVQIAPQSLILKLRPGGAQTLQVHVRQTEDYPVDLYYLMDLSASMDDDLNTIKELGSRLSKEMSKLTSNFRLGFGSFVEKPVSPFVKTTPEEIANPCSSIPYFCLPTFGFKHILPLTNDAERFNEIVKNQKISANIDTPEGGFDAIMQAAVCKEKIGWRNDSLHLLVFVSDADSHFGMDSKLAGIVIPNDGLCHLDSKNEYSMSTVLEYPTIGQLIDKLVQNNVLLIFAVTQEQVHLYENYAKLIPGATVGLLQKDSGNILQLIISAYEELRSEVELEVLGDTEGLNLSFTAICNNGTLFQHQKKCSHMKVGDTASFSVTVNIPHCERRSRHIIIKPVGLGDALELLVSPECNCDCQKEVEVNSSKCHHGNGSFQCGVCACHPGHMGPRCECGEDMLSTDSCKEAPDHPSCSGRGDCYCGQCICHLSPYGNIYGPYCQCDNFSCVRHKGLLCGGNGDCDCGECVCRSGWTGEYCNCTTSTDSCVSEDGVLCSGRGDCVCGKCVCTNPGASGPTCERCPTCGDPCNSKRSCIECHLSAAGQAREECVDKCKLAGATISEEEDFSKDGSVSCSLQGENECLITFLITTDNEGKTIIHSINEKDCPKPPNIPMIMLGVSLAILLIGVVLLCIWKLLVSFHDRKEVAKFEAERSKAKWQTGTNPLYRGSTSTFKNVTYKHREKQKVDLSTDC

Consider Human IgG1 (antibody), for which the figures for the Geometric Mean Shift (arbitrary units) in assay [1] and in assay [5] were 54 and 108, respectively. The figures for the percent of cells shifted in [2] and in assay [3] were 1% and 0%, respectively. In [4], this substance showed a Percent Inhibition, adhesion of J6.77 cells to CS-1 peptide of fibronectin, 5 ug/ml of 26%. The Percent Inhibition, adhesion of J6.77 cells to CS-1 peptide of fibronectin, 5 µg/ml in assay [4] is -6%.

For the substance Human IgG2 (antibody), in [4], the Percent Inhibition, adhesion of J6.77 cells to CS-1 peptide of fibronectin, 5 ug/ml turned out to be 13% and the Percent Inhibition, adhesion of J6.77 cells to CS-1 peptide of fibronectin, 5 µg/ml was -9%.

For Human IgG4 (antibody), the Percent Inhibition, adhesion of J6.77 cells to CS-1 peptide of fibronectin, 5 ug/ml in [4] was 15%.

Human IgG Isotype Control (antibody): in [6], the Mac AVB6 % Cells Shifted is 0% and the Mac AVB6 GeoMean was 7.39. In addition, in [7], the Mac AVB6 % Cells Shifted turned out to be 1% and the Mac AVB6 GeoMean was determined as 9.54. Moreover, in [8], the A375M % Shifted Cells is 5% and the A375M GeoMean came out at 1.66. In addition, in assay [9], the % Inhibition, adhesion of K562 cells to fibronectin was -12% and the Percent Inhibition, adhesion of K562 cells to FN9-10 peptide of fibronectin, 5 µg/ml came to 11%. Besides, the Percent Inhibition, adhesion of A375M cells to osteopontin peptide, 5 µg/ml in assay [10] came to 3%. For the same substance, in [11], the A375M % Shifted Cells was 1% and the A375M GeoMean amounted to 7.23.

Mouse IgG1 (antibody): the Geometric Mean Shift (arbitrary units) in assay [12] is 13; in [13], 20.

With “Mouse IgG2 with Murine Secondary Antibody”, in assay [6], the Mac AVB6 % Cells Shifted is 0% and the Mac AVB6 GeoMean amounted to 11.2. Besides, in assay [7], the Mac AVB6 % Cells Shifted turned out to be 1% and the Mac AVB6 GeoMean amounted to 8.85. Further, in [8], the A375M % Shifted Cells turned out to be 4% and the A375M GeoMean is 1.67. For the same substance, in assay [11], the A375M % Shifted Cells was found to be 3% and the A375M GeoMean is 11.2.

With Mouse IgG2a (antibody), the Geometric Mean Shift (arbitrary units) in [14] worked out at 25; in assay [15] it was 36.

Mouse IgG Control (antibody): in assay [10], the Percent Inhibition, adhesion of A375M cells to osteopontin peptide, 5 µg/ml was found to be 5%.

As to “murine αVβ6 antibody (Cat#MAB2077z, Chemicon)”, the Mac AVB6 % Cells Shifted in [16] was determined as 42%; in assay [23], 11%. Also, the Mac AVB6 GeoMean in [16] amounted to 55.5; in assay [23] it was 28.1. This substance also yielded an ELISA OD in assay [17] of 6 OD. The percent of cells shifted in assay [2] is 5%; in assay [3] it was 20%. In assay [18], this substance came in with an FMAT FL1XCount of 44200. Besides, the A375M % Shifted Cells in [19] was 5%; in assay [22], 30%. Besides, the A375M GeoMean in assay [19] came to 15.4; in assay [22] it was 2.03. Besides, the Geometric Mean Shift (arbitrary units) came out at 84 in assay [20] and 122 in assay [24]. The Estimated IC50, adhesion of HT29 cells to TGFβLAP, n = 1 in [21] was 0.226 mg/L. Further, the Estimated IC50, adhesion of HT29 cells to TGFβLAP, n = 2 in assay [21] is 0.185 mg/L. For the same substance, in [21], the Estimated IC50, adhesion of HT29 cells to TGFβLAP, n = 3 is 0.286 mg/L.
